Here are results for four substances from article PMC5995542.

Assay [1] addresses PostHC, post-hydrolysis termination complex: E. coli 70S ribosome labelled with Cy3 at protein L11, deacylated tRNAfMet in the P site and the stop codon UAA in the A site (E. coli) (UniProt P0A7J7). The assay is described as follows: FRET or BRET; single-molecule FRET by TIRF, residence time: RF2-Cy5 (10 nM) on L11-Cy3 PostHC (peptide released by RF2) immobilised through mRNA-biotin:neutravidin; no RF3; imaging buffer pH 7.5, 15 mM MgCl2, 22°C. For orientation: In BRET a luciferase serves as donor, and the signal depends on an acceptor being close.

Assay [2] has as its target E. coli 70S ribosome termination complex labelled with Cy3 at protein L11 (PreHC, PostHC* or PostHC) (E. coli) (UniProt P0A7J7). The assay is described as follows: FRET or BRET; smFRET (TIRF), RF1(GAQ)-Cy5 (10 nM) on immobilised PostHC* (puromycin) labelled at L11-Cy3, with excess unlabelled RF3 (1 µM) and GTP (1 mM); 22°C.
Assay [3] has the same target. The assay can be described thus: FRET or BRET; smFRET (TIRF), RF1(GAQ)-Cy5 (10 nM) on immobilised PreHC labelled at L11-Cy3, with excess unlabelled RF3 (1 µM) and GTP (1 mM); 22°C.
For assay [4] the target is unchanged. The assay can be described thus: FRET or BRET; smFRET (TIRF) between factor-Cy5 (10 nM, in solution) and L11-Cy3 on PreHC or PostHC (peptide released by puromycin or by the factor) immobilised by mRNA-biotin:neutravidin; no RF3; imaging buffer pH 7.5, 15 mM MgCl2, 22°C; koff from residence times, limited by photobleaching (0.07–0.19 s^-1).
Assay [5] has the same target. The assay can be described thus: FRET or BRET; smFRET (TIRF), RF1-Cy5 (10 nM) on immobilised L11-Cy3 PreHC converted in situ to PostHC by RF1, with excess unlabelled RF3 (1 µM) and GTP (1 mM); 22°C.
Assay [6] deals with PostHC, post-hydrolysis termination complex: E. coli 70S ribosome labelled with Cy3 at protein L11, deacylated tRNAfMet in the P site and the stop codon UAA in the A site (E. coli) (UniProt P0A7J7). The assay is described as follows: FRET or BRET; single-molecule FRET by TIRF, residence time: RF3-Cy5 (10 nM) with GDPNP (1 mM) on L11-Cy3 PostHC immobilised through mRNA-biotin:neutravidin; with saturating unlabelled RF1 (1 µM).

What is called koff is the first-order rate constant of dissociation.

Consider “RF2-Cy5, single-cysteine release factor RF2(C273) labelled with Cy5 (from UniProt P07012 1-365) (natural protein)”, for which the off-rate (koff) in assay [1] turned out to be 0.84 s⁻¹.

For “RF1(GAQ)-Cy5 (catalytically impaired RF1(G234A), Cy5-labelled) (from UniProt P0A7I0 1-360) (natural protein)”, the koff was 1.3 s⁻¹ in assay [2], < 0.3 s⁻¹ in assay [3] and < 0.2 s⁻¹ in assay [4]. This substance registered a koff of the small fraction (8%) of complexes that release RF1(GAQ) slowly in assay [2] of 0.12 s⁻¹.

Turning to “RF1-Cy5 (release factor RF1, single-cysteine variant RF1(S167C) labelled with Cy5) (from UniProt P0A7I0 1-360) (natural protein)”, the koff in assay [5] is 1.2 s⁻¹; in assay [4] it was < 0.2 s⁻¹.

Substance “RF3-Cy5, single-cysteine release factor RF3(L233C) labelled with Cy5 (from UniProt P0A7I4 1-529) (natural protein)” registered an off-rate constant (koff) in assay [6] of 2.5 s⁻¹.
